The data set concerns the molecule itself. The experiment in a line: time-resolved SAXS/diffraction.

One protein from article PMC6955313 (Proceedings of the National Academy of Sciences of the …, 2019) can be followed below.

B1: RsaA_(Full-Length), the 98-kDa surface-layer protein (SLP) from Caulobacter crescentus (natural protein)
chain: MAYTTAQLVTAYTNANLGKAPDAATTLTLDAYATQTQTGGLSDAAALTNTLKLVNSTTAVAIQTYQFFTGVAPSAAGLDFLVDSTTNTNDLNDAYYSKFAQENRFINFSINLATGAGAGATAFAAAYTGVSYAQTVATAYDKIIGNAVATAAGVDVAAAVAFLSRQANIDYLTAFVRANTPFTAAADIDLAVKAALIGTILNAATVSGIGGYATATAAMINDLSDGALSTDNAAGVNLFTAYPSSGVSGSTLSLTTGTDTLTGTANNDTFVAGEVAGAATLTVGDTLSGGAGTDVLNWVQAAAVTALPTGVTISGIETMNVTSGAAITLNTSSGVTGLTALNTNTSGAAQTVTAGAGQNLTATTAAQAANNVAVDGGANVTVASTGVTSGTTTVGANSAASGTVSVSVANSSTTTTGAIAVTGGTAVTVAQTAGNAVNTTLTQADVTVTGNSSTTAVTVTQTAAATAGATVAGRVNGAVTITDSAAASATTAGKIATVTLGSFGAATIDSSALTTVNLSGTGTSLGIGRGALTATPTANTLTLNVNGLTTTGAITDSEAAADDGFTTINIAGSTASSTIASLVAADATTLNISGDARVTITSHTAAALTGITVTNSVGATLGAELATGLVFTGGAGADSILLGATTKAIVMGAGDDTVTVSSATLGAGGSVNGGDGTDVLVANVNGSSFSADPAFGGFETLRVAGAAAQGSHNANGFTALQLGATAGATTFTNVAVNVGLTVLAAPTGTTTVTLANATGTSDVFNLTLSSSAALAAGTVALAGVETVNIAATDTNTTAHVDTLTLQATSAKSIVVTGNAGLNLTNTGNTAVTSFDASAVTGTGSAVTFVSANTTVGEVVTIRGGAGADSLTGSATANDTIIGGAGADTLVYTGGTDTFTGGTGADIFDINAIGTSTAFVTITDAAVGDKLDLVGISTNGAIADGAFGAAVTLGAAATLAQYLDAAAAGDGSGTSVAKWFQFGGDTYVVVDSSAGATFVSGADAVIKLTGLVTLTTSAFATEVLTLA
Turning to B1, the binding result is “binds”.
